According to IntAct's records for PubMed 28486698:

B1: THAP domain-containing protein 1 (Homo sapiens), Q9NVV9 (parent)
chain: MVQSCSAYGCKNRYDKDKPVSFHKFPLTRPSLCKEWEAAVRRKNFKPTKYSSICSEHFTPDCFKRECNNKLLKENAVPTIFLCTEPHDKKEDLLEPQEQLPPPPLPPPVSQVDAAIGLLMPPLQTPVNLSVFCDHNYTVEDTMHQRKRIHQLEQQVEKLRKKLKTAQQRCRRQERQLEKLKEVVHFQKEKDDVSERGYVILPNDYFEIVEVPA

Variants of: B1
Details: with hcfc1_human HCFC1, P51610
Sequence of hcfc1_human HCFC1, P51610 (P51610 whole entry): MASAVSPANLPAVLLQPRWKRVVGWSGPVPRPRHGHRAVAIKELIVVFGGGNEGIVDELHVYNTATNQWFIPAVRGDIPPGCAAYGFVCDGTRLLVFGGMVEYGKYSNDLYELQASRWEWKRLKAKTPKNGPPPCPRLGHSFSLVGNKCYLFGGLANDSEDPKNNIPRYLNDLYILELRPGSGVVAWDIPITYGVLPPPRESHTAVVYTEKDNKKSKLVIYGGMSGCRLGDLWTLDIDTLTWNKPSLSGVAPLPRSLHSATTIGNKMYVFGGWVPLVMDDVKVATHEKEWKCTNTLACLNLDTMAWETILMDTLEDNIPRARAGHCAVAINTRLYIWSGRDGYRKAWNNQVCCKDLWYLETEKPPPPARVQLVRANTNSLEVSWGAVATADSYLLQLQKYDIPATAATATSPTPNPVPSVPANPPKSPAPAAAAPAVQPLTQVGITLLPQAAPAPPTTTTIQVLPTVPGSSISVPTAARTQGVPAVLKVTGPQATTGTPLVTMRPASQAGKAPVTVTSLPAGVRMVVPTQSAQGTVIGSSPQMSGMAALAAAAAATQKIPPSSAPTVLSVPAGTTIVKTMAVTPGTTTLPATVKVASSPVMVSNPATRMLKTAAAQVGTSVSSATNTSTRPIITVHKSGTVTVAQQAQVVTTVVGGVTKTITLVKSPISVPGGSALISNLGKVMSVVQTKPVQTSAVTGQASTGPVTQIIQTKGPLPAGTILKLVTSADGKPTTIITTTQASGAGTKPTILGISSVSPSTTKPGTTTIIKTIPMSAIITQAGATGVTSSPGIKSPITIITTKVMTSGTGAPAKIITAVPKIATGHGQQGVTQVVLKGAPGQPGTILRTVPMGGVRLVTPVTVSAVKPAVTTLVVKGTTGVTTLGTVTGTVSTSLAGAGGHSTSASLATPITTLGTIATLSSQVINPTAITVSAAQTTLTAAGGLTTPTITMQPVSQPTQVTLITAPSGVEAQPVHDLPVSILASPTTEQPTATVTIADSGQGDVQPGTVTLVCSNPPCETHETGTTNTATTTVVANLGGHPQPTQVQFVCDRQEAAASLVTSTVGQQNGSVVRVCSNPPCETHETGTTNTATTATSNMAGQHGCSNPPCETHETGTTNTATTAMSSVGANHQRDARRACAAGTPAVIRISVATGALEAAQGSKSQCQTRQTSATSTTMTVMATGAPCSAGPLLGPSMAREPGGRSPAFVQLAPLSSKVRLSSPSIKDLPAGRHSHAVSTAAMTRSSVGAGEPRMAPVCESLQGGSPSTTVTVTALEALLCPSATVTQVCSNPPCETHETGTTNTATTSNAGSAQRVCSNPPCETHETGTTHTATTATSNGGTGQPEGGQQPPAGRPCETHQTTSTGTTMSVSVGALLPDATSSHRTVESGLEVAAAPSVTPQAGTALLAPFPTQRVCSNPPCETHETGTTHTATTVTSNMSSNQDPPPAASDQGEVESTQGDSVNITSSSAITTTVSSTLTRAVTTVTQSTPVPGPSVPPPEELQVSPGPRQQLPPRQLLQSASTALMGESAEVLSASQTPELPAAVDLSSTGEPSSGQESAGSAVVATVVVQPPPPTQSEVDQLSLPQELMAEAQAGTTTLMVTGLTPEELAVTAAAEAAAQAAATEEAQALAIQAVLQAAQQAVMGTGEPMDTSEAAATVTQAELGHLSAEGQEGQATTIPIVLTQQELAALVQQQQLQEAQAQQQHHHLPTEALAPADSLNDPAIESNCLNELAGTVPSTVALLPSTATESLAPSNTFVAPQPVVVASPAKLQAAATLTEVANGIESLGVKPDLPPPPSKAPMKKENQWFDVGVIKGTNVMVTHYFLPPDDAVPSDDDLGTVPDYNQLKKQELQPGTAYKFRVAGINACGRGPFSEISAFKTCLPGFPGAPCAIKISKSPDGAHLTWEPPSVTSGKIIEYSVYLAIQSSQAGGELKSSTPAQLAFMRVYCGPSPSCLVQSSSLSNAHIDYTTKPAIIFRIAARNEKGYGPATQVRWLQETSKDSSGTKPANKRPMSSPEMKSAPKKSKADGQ

effect of a mutation on the interaction	Variant
disrupting interaction strength	Y137C
disrupting interaction strength	N136K
disrupting interaction strength	N136S

Variants of: B1
Details: with hcfc1_human HCFC1, P51610
Remark: another data set of the same source

effect of a mutation on the interaction	Variant
decreasing interaction strength	N136S
